Measured values from the supplement of paper PMC10724198.

Assays:
Saccharomyces cerevisiae [1] = test: protein stability index of tFT-peptide fusion in wild type (PSI (0-1 scale)); higher = more stable (slower turnover); details: genetic background: wild type
Experimental: (§1)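 MPS profiling in S. cerevisiae of two library types built from selected 12-aa C-degron peptides (IN1, IN2, LN1, LN3, VN2, R1-R5, W1-W3, Atg1 and Rpa12 C-termini): saturation mutagenesis libraries and C-terminal +1 capping libraries (13 aa). Each peptide is fused to the C-terminus of a sfGFP-mCherry timer, after a GGGS linker. Cells are FACS-sorted into 8 mCherry/sfGFP bins and sequenced. PSI runs from 0 (unstable) to 1 (stable), measured once in wild type and in the das1Δ or doa10Δ background.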

Saccharomyces cerevisiae [2] = test: protein stability index of tFT-peptide fusion in deletion strain of DOA10 (PSI (0-1 scale)); higher = more stable (slower turnover)
Experimental: as §1
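Wherever protein stability index of tFT-peptide fusion in deletion strain of DOA10 is given: PSI per variant is the weighted mean of its sequencing read distribution over the sorted stability bins, counting only variants with over 10 reads summed across bins.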
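Wherever protein stability index of tFT-peptide fusion in wild type is given: PSI derived as read-weighted mean over the 8 sorting bins, only variants exceeding 10 total reads kept, mCherry placed adjacent to the peptide and sfGFP distal.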

Sequence	protein stability index (Saccharomyces cerevisiae [1])	protein stability index (Saccharomyces cerevisiae [2])
GWYMCSVGCWFR	0.168	0.601
CLVSLPILLFTR	0.314	0.477
GLYMCGVGCWFR	0.335	0.682
CLVSLPITLFFR	0.104	0.65
RVTRLDAYYFRI	0.609	0.714
RVTELDAIYFRI	0.633	0.64
RVTRLDAIYFWI	0.523	0.561
RVTRPDAIYFRI	0.34	0.706
CLVSLPILLFFE	0.454	0.57
CLVSLAILLFFR	0.248	0.351
AITLKMCPLLLR	0.296	0.624
AIILPMCPLLLR	0.277	0.617
GLYMRSVGCWFR	0.252	0.688
RVTRLDPIYFRI	0.462	0.707
CLVSLEILLFFR	0.211	0.262
AITLPMCPLNLR	0.645	0.673
YSLRVLLPLYFR	0.244	0.632
KLYMCSVGCWFR	0.349	0.654
RPTRLDAIYFRI	0.504	0.666
AITLPMCPLLLRW	0.0872	0.621
CLVSLPILLFFRT	0.0656	0.516
RSLRVLLPLYDR	0.652	0.708
AITLPMCPLLFR	0.27	0.669
EVTRLDAIYFRI	0.435	0.701
ARTLPMCPLLLR	0.311	0.669
FLVSLPILLFFR	0.0831	0.539
CLVSLPILLTFR	0.0802	0.627
RVTRLDLIYFRI	0.224	0.654
RSLRVLLWLYFR	0.166	0.524
